B1: mAb 88 (Fab, V domains shown)
VH: QLQLQESGPGLVKPSQTLSLTCTVSGGSISSGSYNWTWIRQPAGKGLEWIGRIYNSGSTNYNPSLKSRVTISVDTSKNQLSLKVRSVTAADTAVYYCARHCSGGTCYPKYYYGMDVWGQGTTVTVSS
VL: QSALTQPPSVSEAPRQRVTISCSGSSSNIGNNAVNWYQQFPGKAPKLLIYYDDLLPSGVSDRFSGSKSGTSASLAISGVQSEDEADYYCAAWDDSLNVVVFGGGTKLTVL
B2: chimera 253H/165L (Fab, V domains shown)
VH: not shown
VL: DIVMTQSPGTLSLSPGERATLSCRASQSVRSSYLAWYQQKPGQAPRLLIYGASRRGTGIPDRFSGSGSGTDFTLTISRLEPEDFAVYYCQQYGSSPWTFGQGTKVEIK
notes: also called 253-165; 353/165; source: from Dejnirattisai et al., 2021; human mAbs expressed in HEK293T cells
B3: mAb 150 (Fab, V domains shown)
VH: QVQLVESGGGLIQPGGSLRLSCAASGVTVSSNYMSWVRQAPGKGLEWVSIIYSGGTTYYADSVKGRFTISRDSSMNTLYLQMNSLRAEDTAVYYCARDLMVYGIDVWGQGTTVTVSS
VL: EIVMTQSPSSLSASVGDRVTITCRASQGISSYLAWYQQKPGKAPKLLIYAASTLQSGVPSRFSGSGSGTDFTLTISSLQPEDFATYYCQQLDSYPPGYTFGQGTKVDIK
notes: source: from Dejnirattisai et al., 2021; human mAbs expressed in HEK293T cells

molecular target: His-tagged SARS-CoV-2 RBD (native RBD) (SARS-CoV-2, Wuhan (native RBD), UniProt P0DTC2); assay: BLI; conditions: both partners purified

B1 and B2 are within 1.5-fold of each other in Kd: 0.64 nM for the first, 0.73 nM for the second.

Binder B3 has a Kd of 0.19 nM.
